The record followed here is publication PMC2950890 (Nature structural & molecular biology, 2010).

The target of the test is T1, Escherichia coli RecB (E. coli, UniProt P08394 1-1180).
T1 sequence: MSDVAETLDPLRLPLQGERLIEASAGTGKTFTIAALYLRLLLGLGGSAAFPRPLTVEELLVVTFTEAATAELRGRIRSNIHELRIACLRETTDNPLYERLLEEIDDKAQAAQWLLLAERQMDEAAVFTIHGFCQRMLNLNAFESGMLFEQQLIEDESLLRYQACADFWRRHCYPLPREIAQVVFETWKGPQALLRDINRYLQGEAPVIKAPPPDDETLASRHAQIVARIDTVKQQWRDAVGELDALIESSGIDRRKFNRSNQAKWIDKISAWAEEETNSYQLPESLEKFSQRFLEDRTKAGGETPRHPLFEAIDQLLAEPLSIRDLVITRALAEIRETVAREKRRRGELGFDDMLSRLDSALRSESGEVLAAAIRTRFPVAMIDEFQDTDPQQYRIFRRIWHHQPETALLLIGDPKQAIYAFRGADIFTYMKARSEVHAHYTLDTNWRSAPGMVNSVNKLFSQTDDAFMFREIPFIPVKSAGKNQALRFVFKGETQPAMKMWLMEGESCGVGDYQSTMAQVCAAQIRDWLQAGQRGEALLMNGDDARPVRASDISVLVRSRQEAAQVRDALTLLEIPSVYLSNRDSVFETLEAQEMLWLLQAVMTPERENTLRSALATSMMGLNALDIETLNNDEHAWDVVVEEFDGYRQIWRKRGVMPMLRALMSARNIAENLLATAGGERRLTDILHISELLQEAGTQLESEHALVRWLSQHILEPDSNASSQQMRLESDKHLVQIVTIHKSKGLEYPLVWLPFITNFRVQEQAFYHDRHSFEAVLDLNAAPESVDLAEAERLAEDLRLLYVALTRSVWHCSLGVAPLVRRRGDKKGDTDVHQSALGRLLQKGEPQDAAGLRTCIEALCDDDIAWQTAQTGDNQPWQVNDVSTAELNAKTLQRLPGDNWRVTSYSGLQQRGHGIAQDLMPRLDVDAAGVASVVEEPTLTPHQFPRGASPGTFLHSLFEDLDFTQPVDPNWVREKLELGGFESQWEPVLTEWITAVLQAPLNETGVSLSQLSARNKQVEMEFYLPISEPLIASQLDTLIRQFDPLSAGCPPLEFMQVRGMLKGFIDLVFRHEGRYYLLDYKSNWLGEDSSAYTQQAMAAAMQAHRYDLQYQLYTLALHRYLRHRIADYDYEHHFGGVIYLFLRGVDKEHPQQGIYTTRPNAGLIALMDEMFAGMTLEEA
In words: reconstitution of the complex from separately purified subunits.

B1: Escherichia coli RecC (natural protein)
chain: MLRVYHSNRLDVLEALMEFIVERERLDDPFEPEMILVQSTGMAQWLQMTLSQKFGIAANIDFPLPASFIWDMFVRVLPEIPKESAFNKQSMSWKLMTLLPQLLEREDFTLLRHYLTDDSDKRKLFQLSSKAADLFDQYLVYRPDWLAQWETGHLVEGLGEAQAWQAPLWKALVEYTHQLGQPRWHRANLYQRFIETLESATTCPPGLPSRVFICGISALPPVYLQALQALGKHIEIHLLFTNPCRYYWGDIKDPAYLAKLLTRQRRHSFEDRELPLFRDSENAGQLFNSDGEQDVGNPLLASWGKLGRDYIYLLSDLESSQELDAFVDVTPDNLLHNIQSDILELENRAVAGVNIEEFSRSDNKRPLDPLDSSITFHVCHSPQREVEVLHDRLLAMLEEDPTLTPRDIIVMVADIDSYSPFIQAVFGSAPADRYLPYAISDRRARQSHPVLEAFISLLSLPDSRFVSEDVLALLDVPVLAARFDITEEGLRYLRQWVNESGIRWGIDDDNVRELELPATGQHTWRFGLTRMLLGYAMESAQGEWQSVLPYDESSGLIAELVGHLASLLMQLNIWRRGLAQERPLEEWLPVCRDMLNAFFLPDAETEAAMTLIEQQWQAIIAEGLGAQYGDAVPLSLLRDELAQRLDQERISQRFLAGPVNICTLMPMRSIPFKVVCLLGMNDGVYPRQLAPLGFDLMSQKPKRGDRSRRDDDRYLFLEALISAQQKLYISYIGRSIQDNSERFPSVLVQELIDYIGQSHYLPGDEALNCDESEARVKAHLTCLHTRMPFDPQNYQPGERQSYAREWLPAASQAGKAHSEFVQPLPFTLPETVPLETLQRFWAHPVRAFFQMRLQVNFRTEDSEIPDTEPFILEGLSRYQINQQLLNALVEQDDAERLFRRFRAAGDLPYGAFGEIFWETQCQEMQQLADRVIACRQPGQSMEIDLACNGVQITGWLPQVQPDGLLRWRPSLLSVAQGMQLWLEHLVYCASGGNGESRLFLRKDGEWRFPPLAAEQALHYLSQLIEGYREGMSAPLLVLPESGGAWLKTCYDAQNDAMLDDDSTLQKARTKFLQAYEGNMMVRGEGDDIWYQRLWRQLTPETMEAIVEQSQRFLLPLFRFNQS
Consider B1, for which the binding result was “binds”.
